{"source": "patent US20210386829A1", "about": "“COMPOSITIONS AND METHODS FOR MODULATING CGRP SIGNALING TO REGULATE INNATE LYMPHOID CELL INFLAMMATORY RESPONSES” (The Broad Institute, Inc., priority 2018, published 2021)", "molecules": {"B1": {"name": "IL25 (protein, UniProt Q8VHH8 17-169, looked up)", "Interleukin-25": "VSLRIQEGCSHLPSCCPSKEQEPPEEWLKWSSASVSPPEPLSHTHHAESCRASKDGPLNSRAISPWSYELDRDLNRVPQDLYHARCLCPHCVSLQTGSHMDPLGNSVPLYHNQTVFYRRPCHGEEGTHRRYCLERRLYRVSLACVCVRPRVMA"}}, "test_system": "lung-resident ILCs", "assay": "SMART-Seq2 plate-based scRNA-seq of lung-resident ILCs from PBS-, IL-25- or IL-33-treated mice, differential gene expression by logistic regression (Tables 3, 4)", "type": "in vivo, mouse", "excerpt": "Mice and in vivo ILC activation. C57B1/6J mice were purchased from the Jackson Laboratory. Nmur1-LacZ reporter mice with a LacZ cassette knocked into the Nmur1 locus were rederived from Nmur1^tm1.1(KOMP)Vlcg sperm obtained from the trans-NIH Knock-Out Mouse Project (KOMP) Repository. NMU-deficient mice (NMU-KO) were rederived from B6.129S2-Nmu<tm1Mko> embryos from the RIKEN BioResource Center. For experiments with Nmur1-LacZ (Nmur1-KO) and NMU-KO mice, littermates that were either homozygous or heterozygous for the wild type allele were used as controls. Mice were housed under specific-pathogen-free conditions. For experiments, mice were matched for sex and age, and most mice were 6-10 weeks old. Where indicated, mice were anesthetized with Isoflurane and treated intranasally with the indicated stimuli (500 ng IL-25, 500 ng IL-33, or 20 μg Neuromedin U) daily for three consecutive days. The total administered volume was 20 μl for all conditions. Mice were randomly assigned to treatment groups after matching for sex and age. […] Mice were treated intranasally with 10 μg HDM on day 0, 7, 8, and 9, prior to sacrifice on day 10. All experiments were conducted in accordance with animal protocols approved by the Harvard Medical Area Standing Committee on Animals or BWH IACUC.\nFluorescence-activated cell sorting of innate lymphoid cells. After dissociation, single cell suspensions were incubated with CD90.2 MicroBeads (Miltenyi Biotec) on ice and enriched for CD90.2^+ cells by magnetic separation using LS columns according to the manufacturer's protocol. CD90.2^+ lung cells were then stained on ice with antibodies for sorting. ILCs were defined as 7AAD^− CD45^+ CD90.2^+ CD127^+ Lineage (CD11b, CD11c, CD19, NK1.1, […], CD4, CD8a, TCRβ, TCRγδ)^− cells and sorted on a BD FACS Aria (BD Biosciences).\nFor full-length scRNA-Seq, single ILCs were sorted into 96-well plates containing 5 ul TCL Buffer (QIAGEN) with 1% 2-Mercaptoethanol, centrifuged and frozen at −80° C. SMART-Seq2 protocol was carried out as previously described^23 with minor modifications in the reverse transcription step. cDNA was amplified with 22 cycles and fragmented with one-eighth of the standard Illumina NexteraXT reaction volume. Single-cell libraries were pooled and paired-end sequenced (38 bp×2) with a 75 cycle Nextseq 500 high output V2 kit.\nAnalysis of SMART-Seq2 plate-based scRNA-Seq data. Reads were aligned to mm10 using Kallisto (Bray, N. L., Pimentel, H., Meisted, P. & Pachter, L. Near-optimal probabilistic RNA-seq quantification. Nat Biotechnol 134, 525-527, doi:10.1038/nbt.3519 (2016)) quant, version 0.42.3. The R package tximport (Soneson, C., Love, M. I. & Robinson, M. D. Differential analyses for RNA-seq: transcript-level estimates improve gene-level inferences [version 2; referees: 2 approved]. F1000Research 4, doi:10.12688/f1000research.7563.2 (2016)), version 1.2.0, was used to convert the output to gene counts and traditional TPM values. Because of the variability in read counts per cell across plates, even from the same condition, as well as in the number of genes per cell across conditions, QC was performed for each of eight plates individually in order to remove cells that were outliers with respect to either measure. Out of 752 cells, 606 cells met QC criteria (234 from control, 152 from IL-25 treated mice, and 220 from IL-33 treated mice), and the number of genes per cell in this set ranged from 1,625 to 6,375. Genes that were not expressed with log(TPM)>2.5 in at least two cells were removed from further analysis. Subsequent analysis proceeded analogously to the droplet-based RNA-seq analysis, with parameter settings that reflected both the wider dynamic range of expression and much smaller cell numbers. The minimum ILC signature score required in ILC type assignment was 0.3. Variable genes were identified by running MeanVarPlot with x.low.cutoff=0.1, y.cutoff=1.5, and x.high.cutoff=10, resulting in a set of 519 genes. […]", "data": [{"molecule": "B1", "values": [{"measurement": "0610031J06Rik expression coeff", "result": 0.555}, {"measurement": "1700017B05Rik expression coeff", "result": "−1.49"}, {"measurement": "1700113H08Rik expression coeff", "result": "−0.86"}, {"measurement": "4632428N05Rik expression coeff", "result": 1.28}, {"measurement": "AA467197 expression coeff", "result": "−0.724"}, {"measurement": "AI593442 expression coeff", "result": "−2.55"}, {"measurement": "AI836003 expression coeff", "result": "−0.781"}, {"measurement": "AW112010 expression coeff", "result": 0.787}, {"measurement": "Abtb2 expression coeff", "result": 0.292}, {"measurement": "Acot7 expression coeff", "result": 0.807}, {"measurement": "Adrbk1 expression coeff", "result": 0.798}, {"measurement": "Adsl expression coeff", "result": "−1.77"}, {"measurement": "Ahcyl2 expression coeff", "result": "−1.01"}, {"measurement": "Amd1 expression coeff", "result": "−0.74"}, {"measurement": "Anxa2 expression coeff", "result": 0.693}, {"measurement": "Ap3d1 expression coeff", "result": 0.719}, {"measurement": "Arf5 expression coeff", "result": 0.592}, {"measurement": "Arhgap1 expression coeff", "result": 1.34}, {"measurement": "Arhgap26 expression coeff", "result": 0.821}, {"measurement": "Asl expression coeff", "result": 1.17}, {"measurement": "Asph expression coeff", "result": "−1.27"}, {"measurement": "Atp8b4 expression coeff", "result": 1}, {"measurement": "Atxn7l3b expression coeff", "result": 0.557}, {"measurement": "Bcl2a1d expression coeff", "result": 0.357}, {"measurement": "Bcl3 expression coeff", "result": 1.33}, {"measurement": "Bcl6 expression coeff", "result": 1.29}, {"measurement": "Bmp2 expression coeff", "result": "−0.856"}, {"measurement": "Brix1 expression coeff", "result": "−0.00742"}, {"measurement": "C1qbp expression coeff", "result": "−0.742"}, {"measurement": "Cap1 expression coeff", "result": 1.28}, {"measurement": "Cblb expression coeff", "result": 1.08}, {"measurement": "Ccdc50 expression coeff", "result": 1.05}, {"measurement": "Ccdc142 expression coeff", "result": "−1.86"}, {"measurement": "Ccng1 expression coeff", "result": 0.622}, {"measurement": "Ccr2 expression coeff", "result": "−1.53"}, {"measurement": "Cd247 expression coeff", "result": 1.16}, {"measurement": "Chdh expression coeff", "result": "−0.136"}, {"measurement": "Chordc1 expression coeff", "result": 1.4}, {"measurement": "Chst11 expression coeff", "result": "−0.0352"}, {"measurement": "Cirbp expression coeff", "result": "−1.41"}, {"measurement": "Commd10 expression coeff", "result": "−0.867"}, {"measurement": "Cox10 expression coeff", "result": 0.786}, {"measurement": "Cpsf7 expression coeff", "result": 0.986}, {"measurement": "Crlf2 expression coeff", "result": 0.355}, {"measurement": "Csf1 expression coeff", "result": "−1.01"}, {"measurement": "Cst7 expression coeff", "result": "−0.0555"}, {"measurement": "Ctla4 expression coeff", "result": 1.48}, {"measurement": "Ctsw expression coeff", "result": "−0.0379"}, {"measurement": "Cybrd1 expression coeff", "result": "−0.158"}, {"measurement": "Dcaf12 expression coeff", "result": 0.717}, {"measurement": "Ddrgk1 expression coeff", "result": "−0.21"}, {"measurement": "Ddx20 expression coeff", "result": "−1.24"}, {"measurement": "Ddx58 expression coeff", "result": 0.528}, {"measurement": "Dennd5a expression coeff", "result": 0.929}, {"measurement": "Dgka expression coeff", "result": "−0.0503"}, {"measurement": "Dhx35 expression coeff", "result": "−1.63"}, {"measurement": "Dhx37 expression coeff", "result": "−0.288"}, {"measurement": "Dhx58 expression coeff", "result": 2.3}, {"measurement": "Dkk3 expression coeff", "result": "−0.0269"}, {"measurement": "Dock10 expression coeff", "result": "−0.792"}, {"measurement": "E030030I06Rik expression coeff", "result": "−0.87"}, {"measurement": "Ecm1 expression coeff", "result": "−0.0192"}, {"measurement": "Endod1 expression coeff", "result": 0.398}, {"measurement": "Epsti1 expression coeff", "result": 1.79}, {"measurement": "Eva1b expression coeff", "result": 0.99}, {"measurement": "Exosc4 expression coeff", "result": "−0.31"}, {"measurement": "Extl3 expression coeff", "result": "−0.16"}, {"measurement": "Fam118a expression coeff", "result": "−0.764"}, {"measurement": "Fbxl21 expression coeff", "result": 12.2}, {"measurement": "Ffar2 expression coeff", "result": 1.36}, {"measurement": "Fhl2 expression coeff", "result": "−1.07"}, {"measurement": "Fosb expression coeff", "result": 0.156}, {"measurement": "Foxo3 expression coeff", "result": 2.06}, {"measurement": "Fus expression coeff", "result": "−0.388"}, {"measurement": "Gal3st3 expression coeff", "result": "−1.01"}, {"measurement": "Gba expression coeff", "result": "−0.05"}, {"measurement": "Gbp4 expression coeff", "result": 0.318}, {"measurement": "Gbp6 expression coeff", "result": 0.949}, {"measurement": "Gbp9 expression coeff", "result": 0.745}, {"measurement": "Gga1 expression coeff", "result": 0.739}, {"measurement": "Gigyf1 expression coeff", "result": "−0.844"}, {"measurement": "Glrx expression coeff", "result": 0.346}, {"measurement": "Gm12250 expression coeff", "result": 3.54}, {"measurement": "Gnai2 expression coeff", "result": 0.501}, {"measurement": "Gng2 expression coeff", "result": 1.06}, {"measurement": "Gnl3l expression coeff", "result": "−0.617"}, {"measurement": "Gp49a expression coeff", "result": 1.04}, {"measurement": "Gpr108 expression coeff", "result": 0.205}, {"measurement": "Grn expression coeff", "result": "−0.326"}, {"measurement": "Gskip expression coeff", "result": 0.645}, {"measurement": "Gucd1 expression coeff", "result": "−0.0721"}, {"measurement": "H2-T9 expression coeff", "result": 0.437}, {"measurement": "H2-T10 expression coeff", "result": 0.799}, {"measurement": "H2-T22 expression coeff", "result": 0.0651}, {"measurement": "Herc6 expression coeff", "result": 0.579}, {"measurement": "Hpcal1 expression coeff", "result": "−0.169"}, {"measurement": "Hsph1 expression coeff", "result": 0.237}, {"measurement": "Idh2 expression coeff", "result": "−0.56"}, {"measurement": "Ifi35 expression coeff", "result": 0.307}, {"measurement": "Ifngr2 expression coeff", "result": "−0.761"}, {"measurement": "Ifrd2 expression coeff", "result": "−1.53"}, {"measurement": "Igfbp4 expression coeff", "result": "−2.9"}, {"measurement": "Igsf5 expression coeff", "result": "−0.93"}, {"measurement": "Il2rb expression coeff", "result": 0.699}, {"measurement": "Il5 expression coeff", "result": 1.4}, {"measurement": "Il13 expression coeff", "result": 1.61}, {"measurement": "Impact expression coeff", "result": "−1.46"}, {"measurement": "Inpp1 expression coeff", "result": 1.79}, {"measurement": "Inpp4b expression coeff", "result": "−0.752"}, {"measurement": "Inpp5b expression coeff", "result": 0.937}, {"measurement": "Irf4 expression coeff", "result": 1.11}, {"measurement": "Irf7 expression coeff", "result": 0.423}, {"measurement": "Isg15 expression coeff", "result": 2.03}, {"measurement": "Isg20 expression coeff", "result": 1.54}, {"measurement": "Itgae expression coeff", "result": "−0.182"}, {"measurement": "Kit expression coeff", "result": "−0.406"}, {"measurement": "Krit1 expression coeff", "result": 0.612}, {"measurement": "Lamp2 expression coeff", "result": 0.692}, {"measurement": "Lancl1 expression coeff", "result": "−1.11"}, {"measurement": "Lat2 expression coeff", "result": "−0.0259"}, {"measurement": "Lcmt2 expression coeff", "result": "−2.32"}, {"measurement": "Lgals3bp expression coeff", "result": 0.804}, {"measurement": "Lgals3 expression coeff", "result": 0.303}, {"measurement": "Lilrb4 expression coeff", "result": 0.943}, {"measurement": "Lpcat2 expression coeff", "result": "−0.773"}, {"measurement": "Lsm6 expression coeff", "result": "−0.616"}, {"measurement": "Lxn expression coeff", "result": 0.065}, {"measurement": "Ly6a expression coeff", "result": 0.412}, {"measurement": "Map2k4 expression coeff", "result": 1.89}, {"measurement": "Marf1 expression coeff", "result": 3.17}]}]}
